Results as given in patent publication US20220073621A1.

What was measured:
[1] = target: Mouse PD-L1 on CHO cells (mouse) (UniProt Q9EP73); assay: flow cytometry, CHO-mPD-L1 cells, Anti-mouse-IgGFc-FITC
[2] = target: Rhesus monkey PD-L1 on CHO cells (rhesus monkey); assay: flow cytometry, CHO-rmPD-L1 cells, Anti-mouse-IgGFc-FITC
[3] = target: human-mouse chimeric PD-L1 on CHO cells (human-mouse chimeric); assay: flow cytometry, CHO-cPD-L1 cells, Anti-human IgG Fc-FITC
[4] = target: Mouse PD-L1 on CHO cells (mouse) (UniProt Q9EP73); assay: flow cytometry, CHO-mPD-L1 cells, Anti-human IgG Fc-FITC
[5] = target: Rhesus monkey PD-L1 on CHO cells (rhesus monkey); assay: flow cytometry, CHO-rPD-L1 cells, Anti-human IgG Fc-FITC

Sequence of Mouse PD-L1 on CHO cells (mouse) (Q9EP73 19-290 limits assumed): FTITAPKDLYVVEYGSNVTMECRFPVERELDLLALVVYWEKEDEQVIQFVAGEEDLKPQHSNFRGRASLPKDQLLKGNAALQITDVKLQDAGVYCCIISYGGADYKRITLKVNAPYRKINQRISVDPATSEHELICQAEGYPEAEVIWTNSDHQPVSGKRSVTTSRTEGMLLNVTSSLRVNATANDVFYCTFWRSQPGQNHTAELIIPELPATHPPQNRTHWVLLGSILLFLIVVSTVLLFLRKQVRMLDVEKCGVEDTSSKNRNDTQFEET
Sequence of Rhesus monkey PD-L1 on CHO cells (rhesus monkey) (Q9NZQ7 other isoform, or with tags, fused parts or gaps limits assumed): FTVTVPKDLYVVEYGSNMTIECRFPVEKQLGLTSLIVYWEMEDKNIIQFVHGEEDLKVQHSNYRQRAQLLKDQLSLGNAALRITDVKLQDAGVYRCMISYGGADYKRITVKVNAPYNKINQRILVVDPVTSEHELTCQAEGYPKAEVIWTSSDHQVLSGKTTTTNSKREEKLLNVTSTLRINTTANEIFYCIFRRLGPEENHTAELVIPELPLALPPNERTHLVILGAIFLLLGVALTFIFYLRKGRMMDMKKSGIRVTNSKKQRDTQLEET
Sequence of human-mouse chimeric PD-L1 on CHO cells (human-mouse chimeric) (Q9EP73 other isoform, or with tags, fused parts or gaps mutant limits assumed): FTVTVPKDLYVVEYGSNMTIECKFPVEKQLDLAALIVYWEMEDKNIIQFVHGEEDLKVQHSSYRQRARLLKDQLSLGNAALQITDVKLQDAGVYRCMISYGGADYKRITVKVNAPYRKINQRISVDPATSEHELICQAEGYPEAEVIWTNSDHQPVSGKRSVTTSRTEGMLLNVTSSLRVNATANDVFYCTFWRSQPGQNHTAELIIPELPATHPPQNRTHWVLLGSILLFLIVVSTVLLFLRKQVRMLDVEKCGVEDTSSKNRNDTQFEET

Substance: NC
- % cells in the FITC-positive gate [1]: 5.52%
- % cells in the FITC-positive gate [2]: 1.13%
- % cells in the FITC-positive gate [3]: 0.779%
- % cells in the FITC-positive gate [4]: 0.681%
- % cells in the FITC-positive gate [5]: 2.74%
